Substitutions are numbered along the chain they refer to.

The chains are these.
B1: CCL-314A (antibody, V domains shown)
VH: QVQLQESGPGLVKPSETLSLTCTVSGGSISSYYWSWIRQPAGKGLEWIGRIYASGGTNYNPSLKSRVTMSVDTSKNQFSLKVSSVIAADTAIYYCARNRLGIYDYWGQGSLVTVSS
VL: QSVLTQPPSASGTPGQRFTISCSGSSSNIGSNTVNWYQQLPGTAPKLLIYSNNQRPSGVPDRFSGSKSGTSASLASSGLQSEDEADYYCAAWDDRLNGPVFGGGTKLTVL
notes: AlivaMab chimeric IgG, human lambda LC
B2: CCL-235A (antibody, V domains shown)
VH: QVQLQESGPGLVKPSETLSLTCTVSGGSISSYYWSWIWQPAGKGLEWIGRIYTSGSTNYNPSLKSRVTMSVDTPKNQFSLKLSSVTAADTAVYYCARERLTGAFDIWGQGTMVTVSS
VL: not shown
notes: as for B1
B3: CCL-320A (antibody, V domains shown)
VH: QVQLQESGPGLVKPSETLSLTCTVSVGSISSYYWSWIRQPAGKGLEWIGRIYASGSTNYNPSLKSRVTMSVDTSKNQFSLKLTSVTAADTAVYYCARERVGIYFDYWGQGTLVTVSS
VL: not shown
notes: as for B1
B4: CCL-301A (antibody, V domains shown)
VH: B3 VH with V26G, A53T, S56Y, T68S, T83S, V100L, I102A, Y103F
VL: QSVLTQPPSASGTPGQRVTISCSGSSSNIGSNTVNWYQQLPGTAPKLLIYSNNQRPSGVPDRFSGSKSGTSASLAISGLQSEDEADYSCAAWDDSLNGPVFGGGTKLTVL
notes: as for B1
B5: CCL-322A (antibody, V domains shown)
VH: B3 VH with V26G, A53T, T57I, N58K, T68A, T83S, R99G, V100I, G101L, I102G
VL: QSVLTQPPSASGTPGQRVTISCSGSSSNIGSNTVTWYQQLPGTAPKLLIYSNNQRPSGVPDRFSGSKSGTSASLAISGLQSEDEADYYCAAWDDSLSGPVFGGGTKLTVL
notes: as for B1
B6: CCL-339A (antibody, V domains shown)
VH: QVQLQESGPGLVKPSETLSLTCTVSGGSISSNYWSWIRQPAGKGLEWIGRIYTSGSTKYNPSLKSRVTMSVDTSKNQFSLKLSSVTAADTAVYYCAREGIVGAFHYWGQGALVTVSS
VL: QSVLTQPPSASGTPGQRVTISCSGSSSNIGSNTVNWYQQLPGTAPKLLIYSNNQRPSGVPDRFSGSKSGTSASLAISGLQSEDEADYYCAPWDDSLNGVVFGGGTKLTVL
notes: as for B1
B7: CCL-341A (antibody, V domains shown)
VH: B3 VH with V26G, A53T, T83S, V100L, I102M, Y103F
VL: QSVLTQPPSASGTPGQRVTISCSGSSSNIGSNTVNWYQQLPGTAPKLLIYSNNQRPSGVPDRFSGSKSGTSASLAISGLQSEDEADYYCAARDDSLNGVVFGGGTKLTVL
notes: as for B1
B8: CCL-344A (antibody, V domains shown)
VH: B3 VH with V26G, A53T, T83S, V100L, I102M, Y103F
VL: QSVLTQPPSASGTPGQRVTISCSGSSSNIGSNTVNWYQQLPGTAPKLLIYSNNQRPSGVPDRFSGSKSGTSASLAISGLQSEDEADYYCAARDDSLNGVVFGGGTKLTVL
notes: as for B1
B9: CCL-253A (antibody, V domains shown)
VH: B2 VH with W38R, P74S, V85M, E98D, T101G, G102R
VL: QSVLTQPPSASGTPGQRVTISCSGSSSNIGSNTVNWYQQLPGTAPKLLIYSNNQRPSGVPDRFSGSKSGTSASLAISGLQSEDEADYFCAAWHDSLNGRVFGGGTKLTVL
notes: as for B1
B10: CCL-303A (antibody, V domains shown)
VH: QVQLQESGPGLVKPSETLSLTCTVSGGSISSYYWSWIRQPPGKGLEWIGYIYYSGSTNYNPSLKSRVTISVDTSKNQFSLKLSSVTAADTAVFYCARITVTSAFDIWGQGTMVTVSS
VL: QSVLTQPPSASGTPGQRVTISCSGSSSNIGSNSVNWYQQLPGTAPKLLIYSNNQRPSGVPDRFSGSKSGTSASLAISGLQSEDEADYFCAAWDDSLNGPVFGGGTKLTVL
notes: as for B1
B11: CCL-311A (antibody, V domains shown)
VH: EVQLVQSGAEVKKPGESLKISCKGSGYSFTNYWIGWVRQMPGKGLEWMGIIYPGDSDTRYSPSFQGQVTISADISITTAYLQWSSLKASDTAMYYCARHRLGFFDYWGQGTLVTVSS
VL: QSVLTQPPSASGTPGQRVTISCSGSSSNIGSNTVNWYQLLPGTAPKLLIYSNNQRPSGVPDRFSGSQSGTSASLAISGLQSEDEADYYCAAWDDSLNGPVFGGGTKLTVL
notes: as for B1
B12: CCL-223A (antibody, V domains shown)
VH: QVQLQESGPGLVKPSETLSLTCTVSGGSISSYYWSWIRQPAGKGLEWIGRIYTSGSTNYNPSLKSRVSMSVDTSKNQFSLKLSSVTAADTAVYYCARERIIWFDPWGQGTLVTVSS
VL: not shown
notes: as for B1
B13: CCL-220A (antibody, V domains shown)
VH: B12 VH with W47G, S68T, I100L, I101Y, W102G, F103M, P105V, L111T
VL: not shown
notes: as for B1
B14: CCL-207A (antibody, V domains shown)
VH: B12 VH with S56T, S68T, S83N, I100V
VL: not shown
notes: as for B1
B15: CCL-315A (antibody, V domains shown)
VH: QVQLQESGPGLVKPSETLSLTCTVSGGSISSYYWSWIRQSPGKGLEWIGYIYYSGSTNYNPSLKSRVTISVDTSKNQFSLKLSSVTAADTAVYFCARALLTGGFAYWGQGTLVTVSS
VL: not shown
notes: as for B1
B16: CCL-226A (antibody, V domains shown)
VH: QVQLQESGPGLVKPSETLSLTCTVSGASISSYYWSWIRQPPGKGLEWIGYFYYSGSTNYSPSLKSRVTFSVDTSKNQFSLKLSSVTAADTAVYFCARGKVGVPFDYWGQGTLVTVSS
VL: not shown
notes: as for B1

This test has as its target T1, human CD115 extracellular domain (Sino Biological 10161-H08H) (human, UniProt P07333 20-517).
T1 construct: extracellular domain; bought recombinant protein; also called huCD115; hu-CD115
Description: ELISA, supernatant on huCD115. For orientation: In an ELISA, binding on a coated surface is turned into a signal by an enzyme label.
As to B1, the binding result is reported as “binds”. For B2, the binding result was “binds”. For B3, the binding result was “binds”. Then B4, with “binds”; and B5, with “binds”. On to B6, for which the binding result is reported as “binds”. For B7, the binding result is on record as “binds”.

As to B8, the binding result is recorded as “binds”. Regarding B9, the binding result was “binds”.

Turning to B10, the binding result is “binds”. As for B11, the binding result is recorded as “binds”. Then B12, with “binds”. In the case of B13, the binding result was “binds”.

As for B14, the binding result is given as “binds”. On to B15, for which the binding result is recorded as “binds”. B16: the binding result is listed as “binds”.

(Values after patent US20180258175A1 (ABLEXIS, published 2018).)
